Biological target: HTNV Gn as incorporated in virus-like particles (Hantaan virus (HTNV))
Assay: cryo-EM structure

Substance: HTNV Gn as incorporated in virus-like particles (natural protein)
- stoichiometry N: 4
